From US7425447 (Biogen, dated 2008)
Read-outs that look alike come from different tables or passages of the source.

T1: B7.1/Ig fusion protein (human, UniProt P33681 35-242, limits assumed)
T1 sequence (looked up): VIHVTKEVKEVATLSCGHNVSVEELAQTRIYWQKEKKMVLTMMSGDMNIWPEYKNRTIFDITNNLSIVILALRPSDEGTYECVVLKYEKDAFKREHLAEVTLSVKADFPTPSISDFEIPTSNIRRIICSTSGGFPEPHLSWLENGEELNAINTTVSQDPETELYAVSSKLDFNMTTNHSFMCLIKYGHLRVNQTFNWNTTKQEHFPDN

T2: B7 antigen (CD80) as used in surface plasmon resonance (UniProt P33681 35-242, limits assumed)
T2 sequence (looked up): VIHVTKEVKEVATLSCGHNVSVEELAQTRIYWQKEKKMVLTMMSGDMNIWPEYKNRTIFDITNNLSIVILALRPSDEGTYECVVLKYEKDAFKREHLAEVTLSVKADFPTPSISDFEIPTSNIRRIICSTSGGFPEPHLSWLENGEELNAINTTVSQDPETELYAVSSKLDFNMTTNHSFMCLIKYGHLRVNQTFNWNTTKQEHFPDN

T3: human B7.1 antigen (CD80), membrane associated (human, UniProt P33681 35-288)
T3 sequence (looked up): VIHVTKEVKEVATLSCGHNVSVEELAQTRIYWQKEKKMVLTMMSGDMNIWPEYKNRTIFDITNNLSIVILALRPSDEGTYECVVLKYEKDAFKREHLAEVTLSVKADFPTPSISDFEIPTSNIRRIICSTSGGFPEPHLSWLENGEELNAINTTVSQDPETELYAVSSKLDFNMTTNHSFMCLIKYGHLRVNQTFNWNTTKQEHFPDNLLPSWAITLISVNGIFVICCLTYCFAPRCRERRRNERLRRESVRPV


Experiments:
[1] = molecular target: human B7.1 antigen (CD80), membrane associated (human) (UniProt P33681); assay: competition on B7.1 transfected CHO cells; competitor pair BB-1 and L307.4 (FIG. 8)
B7.1/Ig fusion protein [2] = molecular target: T1, B7.1/Ig fusion protein; assay: cell-based or functional assay
[3] = molecular target: T2, B7 antigen (CD80) as used in surface …; assay: surface plasmon resonance
B7.1/Ig fusion protein [4] = molecular target: T1, B7.1/Ig fusion protein; assay: competition of 125I-B7.1Ig binding to CD28 positive peripheral blood T lymphocytes (FIG. 10)
[5] = molecular target: T3, human B7.1 antigen (CD80), membrane …; assay: cell-based or functional assay
B7.1/Ig fusion protein [6] = molecular target: T1, B7.1/Ig fusion protein; assay: Scatchard analysis, binding to B7-Ig coated plates (apparent Kd)
B7.1/Ig fusion protein [7] = molecular target: T1, B7.1/Ig fusion protein; assay: as above; remark: listed apart in the source

Molecule	cross-reactivity (competition) [1]	concentration for equivalent blocking of IL-2 production against CTLA-4Ig, anti-CD3/B7 beads (8:1) (B7.1/Ig fusion protein [2])	Kd [3]	IC50 (B7.1/Ig fusion protein [4])	inhibition of IL-2 production in mixed lymphocyte reaction [5]	Kd (B7.1/Ig fusion protein [6])	Kd (B7.1/Ig fusion protein [7])
BB-1 murine anti-B7 antibody	50%	–	–	–	–	–	–
PRIMATIZED 16C10 (antibody, V domains shown, Monkey variable domains with human constant regions, made in CHO cells; Biotinylated in some assays; also called P16C10; copies: 2 + 2) VH: QVQLQESGPGLVKPSETLSLTCAVSGGSISGGYGWGWIRQPPGKGLEWIGSFYSSSGNTYYNPSLKSQVTISTDTSKNQFSLKLNSMTAADTAVYYCVRDRLFSVVGMVYNNWFDVWGPGVLVTVSS VL: ESALTQPPSVSGAPGQKVTISCTGSTSNIGGYDLHWYQQLPGTAPKLLIYDINKRPSGISDRFSGSKSGTAASLAITGLQTEDEADYYCQSYDSSLNAQVFGGGTRLTVLG	–	~10 fold	4 nM	< 1 µg/mL	–	–	–
monkey monoclonal antibody 7B6 (antibody, V domains shown, Cynomolgus monkey antibody from a heterohybridoma; also called hybridoma ATCC HB-12120) VH: EVQLVESGGGLVQPGGSLRVSCAVSGFTFSDHYMYWFRQAPGKGPEWVGFIRNKPNGGTTEYAASVKDRFTISRDDSKSIAYLQMSSLKIEDTAVYYCTTSYISHCRGGVCYGGYFEFWGQGALVTVSS VL: EVVMTQSPLSLPITPGEPASISCRSSQSLKHSNGDTFLSWYQQKPGQPPRLLIYKVSNRDSGVPDRFSGSGAGTDFTLKISAVEAEDVGVYFCGQGTRTPPTFGGGTKVEIK	–	–	–	–	5 µg/mL	~10.7 nM	~10.7 nM

The remaining lines, values ahead:

cross-reactivity (competition) [1]	concentration for equivalent blocking of IL-2 production against CTLA-4Ig, anti-CD3/B7 beads (8:1) (B7.1/Ig fusion protein [2])	Kd [3]	IC50 (B7.1/Ig fusion protein [4])	inhibition of IL-2 production in mixed lymphocyte reaction [5]	Kd (B7.1/Ig fusion protein [6])	Kd (B7.1/Ig fusion protein [7])	Molecule
–	–	–	–	0.1 µg/mL	~8.1 nM	~8.1 nM	monkey monoclonal antibody 16C10 (antibody, V domains shown, Cynomolgus monkey antibody from a heterohybridoma; also called hybridoma ATCC HB-12119) VH: QVQLQESGPGLVKPSETLSLTCAVSGGSISGGYGWGWIRQPPGKGLEWIGSFYSSSGNTYYNPSLKSQVTISTDTSKNQFSLKLNSMTAADTAVYYCVRDRLFSVVGMVYNNWFDVWGPGVLVTVSS VL: ESALTQPPSVSGAPGQKVTISCTGSTSNIGGYDLHWYQQLPGTAPKLLIYDINKRPSGISDRFSGSKSGTAASLAITGLQTEDEADYYCQSYDSSLNAQVFGGGTRLTVL
–	–	–	–	5 µg/mL	~6.2 nM	~6.2 nM	monkey monoclonal antibody 7C10 (antibody, V domains shown, Cynomolgus monkey antibody from a heterohybridoma; The claims (CLM-00020) say that the amino acid entries are the even numbers of each pair; also called 7C10 monkey Ig; hybridoma ATCC HB-12117) VH: QVKLQQWGEGLLQPSETLSRTCVVSGGSISGYYYWTWIRQTPGRGLEWIGHIYGNGATTNYNPSLKSRVTISKDTSKNQFFLNLNSVTDADTAVYYCARGPRPDCTTICYGGWVDVWGPGDLVTVSS VL: AYELTQPPSVSVSPGQTARITCGGDNSRNEYVHWYQQKPARAPILVIYDDSDRPSGIPERFSGSKSGNTATLTINGVEAGDEADYYCQVWDRASDHPVFGGGTRVTVL
